From PMC7476095

Tests used:
[1] = target: KU80 (UniProt P13010); assay: anti-KU80 co-IP, MAD1 blot; details: reference: wild type, IR 6 Gy; sites S214
[2] = target: KU80 (UniProt P13010); assay: anti-FLAG co-IP, KU80 blot; details: reference: wild type, IR 6 Gy; sites S214

MAD1 (mitotic arrest-deficient protein 1) (from UniProt Q9Y6D9) S214A, IR 6 Gy
binding against the reference [1]: weaker | binding against the reference [2]: weaker
